Assay results from article PMC8292379.

Molecular target: Human mitochondrial chaperonin mHsp60 (human), P10809
Experiment: cryo-EM structure; ~9 mg/ml mHsp60 on Quantifoil holey carbon grids, Titan Krios 300 kV, C7 symmetry imposed, combined map at 3.4 Å; 2D class averages show seven-fold symmetry
Settings: remark: other sources report otherwise

stoichiometry N: 7
B1: Human mitochondrial chaperonin mHsp60, P10809 27-573 (natural protein)
chain: AKDVKFGADARALMLQGVDLLADAVAVTMGPKGRTVIIEQSWGSPKVTKDGVTVAKSIDLKDKYKNIGAKLVQDVANNTNEEAGDGTTTATVLARSIAKEGFEKISKGANPVEIRRGVMLAVDAVIAELKKQSKPVTTPEEIAQVATISANGDKEIGNIISDAMKKVGRKGVITVKDGKTLNDELEIIEGMKFDRGYISPYFINTSKGQKCEFQDAYVLLSEKKISSIQSIVPALEIANAHRKPLVIIAEDVDGEALSTLVLNRLKVGLQVVAVKAPGFGDNRKNQLKDMAIATGGAVFGEEGLTLNLEDVQPHDLGKVGEVIVTKDDAMLLKGKGDKAQIEKRIQEIIEQLDVTTSEYEKEKLNERLAKLSDGVAVLKVGGTSDVEVNEKKDRVTDALNATRAAVEEGIVLGGGCALLRCIPALDSLTPANEDQKIGIEIIKRTLKIPAMTIAKNAGVEGSLIVEKIMQSSSEVGYDAMAGDFVNMVEKGIIDPTKVVRTALLDAAGVASLLTTAEVVVTEIPKEEKDPGMGAMGGMGGGMGGGMF
